{
  "source": "paper PMC4286497",
  "tested_on": "Nc1ncnc2c1ncn2[C@@H]1O[C@H](COP(=O)(O)OP(=O)(O)OP(=O)(O)O)[C@@H](O)[C@H]1O",
  "test": "purified protein",
  "key": {"[1]": {"settings": "saturating taxol-stabilized MTs, no ATPγS, pH 7.2, 2 mM MgCl2"}},
  "data": [
    {"substance": "WT dynein (GST-Dyn1_331kD) (Saccharomyces cerevisiae S288C)", "values": [
      {"measurement": "Km", "setting": "[1]", "result": "46 ± 5", "unit": "µM"},
      {"measurement": "kcat", "setting": "[1]", "result": "17.0 ± 0.5", "unit": "s⁻¹"}
    ]},
    {"substance": "WT dynein (GST-Dyn1_331kD) (Saccharomyces cerevisiae S288C; K2424A)", "values": [
      {"measurement": "Km", "setting": "pH 7.2", "result": "38 ± 3", "unit": "µM"}
    ]}
  ]
}
